In US8354392B2, “Drug-introduced photo-crosslinked hyaluronic acid derived gel” (priority 2005, dated 2013):

Columns and labels:
Assay type in all cases: physicochemical
[1] = Extrusion state from the tip of a 23 G injection needle (characteristics); design: key: ◯: formed a mass or a lump having a shape-maintaining property at the tip of the injection needle; X: did not form a mass; conditions: slowly extruded from an injection needle with 23 G downward
Protocol: (§1) Evaluation was carried out in accordance with the following criteria.

[2] = Viscosity measured with a rotation viscometer; conditions: gel from 1% solution in phosphate buffered physiological saline, photoirradiated, heat treatment; rotation viscometer at 20° C., standard cone (1°34′, 1 rpm)
Protocol: A 1% phosphate buffered physiological saline solution of the obtained naproxen-introduced photo-reactive HA (photo-reactive group: cinnamic acid) was prepared, and filled in a 5 mL glass syringe.
as §1

[3] = Extrusion feeling through a 23 gauge injection needle; design: key: ◯: easily extruded; X: difficulty extruded; conditions: whole gel (2 ml to 5 ml) in 5 ml syringe, 23 gauge needle, limit pressure 0.5 to 5 kg/cm^2
Protocol: Evaluation was carried out in accordance with the following criteria. ◯: easily extruded X: difficulty extruded Incidentally, with regard to the criteria for the extrusion feeling, within the range of a limit pressure (0.5 to 5 kg/cm^2), when a whole gel (2 ml to 5 ml) filled in a syringe having a volume of 5 ml was extruded through an injection needle of 23 gauge, it was evaluated to as easily extruded (◯). Also, according to the same operation, when not a whole gel filled in a syringe was extruded, for example, by clogging due to insoluble materials, it was evaluated to as difficulty extruded (X).

## felbinac-introduced photo-crosslinked sodium hyaluronate gel [Example 5]
[1]
  Extruded state: X
[2]
  viscosity: 7.32 Pa·s
[3]
  Extrusion feeling: ◯

## actarit-introduced photo-crosslinked HA gel [Example 8]
[1]
  Extruded state: ◯
[2]
  viscosity: 10.8 Pa·s
[3]
  Extrusion feeling: ◯

## flurbiprofen-introduced photo-crosslinked HA gel [Example 4]
[1]
  Extruded state: ◯
[2]
  viscosity: 21.2 Pa·s
[3]
  Extrusion feeling: ◯

## ibuprofen-introduced photo-crosslinked HA gel [Example 3]
[1]
  Extruded state: ◯
[2]
  viscosity: 13.1 Pa·s
[3]
  Extrusion feeling: ◯

## etodolac-introduced photo-crosslinked HA gel [Example 7]
[1]
  Extruded state: ◯
[2]
  viscosity: 12.7 Pa·s
[3]
  Extrusion feeling: ◯
